Results from patent US20250340631A1 (HARBOUR BIOMED SHANGHAI, published 2025).
Read-outs that look alike come from different tables or passages of the source.

How the values were obtained:
[1] = target: human CLDN18.2 (human); assay: cell-based or functional assay
[2] = target: T1, human CD3 on Jurkat cells (human, UniProt P07766 23-207); assay: FACS on Jurkat cells (CD3)
T1 construct: whole, on cells; on cells it stands in the whole CD3/TCR complex; also called CD3-expressing cells
Procedure: (§1) Antibodies were assayed for binding affinity by FACS. Test cells include HEK293/hCLDN18.2, HEK293/hCLDN18.1, NUGC4_D8 and Jurkat cells. […] The cell density was adjusted to 10⁶ cells/mL, and 50 μL of the cell suspension was added to each well of a 96-well plate. Antibodies were diluted to different concentrations with FACS buffer, and 50 μL of the antibody dilution was added to each well of the 96-well plate. After 2 h of incubation at 4° C., the plate was washed twice with FACS buffer. […] After 1 h of incubation at 4° C., the plate was washed twice with FACS buffer. The cells were resuspended in fixative solution, and then the fluorescence of the cells was monitored using an FACS instrument (ACEA NovoCyte).

[3] = target: CLDN18.2 of SNU620 cells (methionine to leucine at amino acid 149) (human, UniProt P56856-2 1-261); assay: cell-based or functional assay
Chain of CLDN18.2 of SNU620 cells (methionine to leucine at amino acid 149) (P56856 other isoform, or with tags, fused parts or gaps limits assumed): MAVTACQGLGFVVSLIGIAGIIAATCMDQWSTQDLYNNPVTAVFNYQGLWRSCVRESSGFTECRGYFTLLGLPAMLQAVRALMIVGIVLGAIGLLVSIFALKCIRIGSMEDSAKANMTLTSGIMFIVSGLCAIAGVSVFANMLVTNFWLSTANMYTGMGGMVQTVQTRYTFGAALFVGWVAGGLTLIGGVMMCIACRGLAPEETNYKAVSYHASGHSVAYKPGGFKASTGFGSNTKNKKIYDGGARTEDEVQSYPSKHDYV

[4] = target: T2, human CLDN18.2 (human); assay: FACS on HEK293/hCLDN18.2 cells
T2 construct: the HEK293 line was made with a GenScript plasmid; also called hCLDN18.2

[5] = target: T2, human CLDN18.2; assay: FACS on NUGC4_D8 cells
Procedure: as §1

[6] = target: T1, human CD3 on Jurkat cells; assay: FACS on Jurkat cells (CD3); remark: listed apart in the source
Procedure: as §1

[7] = target: T3, human CLDN18.1 (human, UniProt P56856 1-261); assay: FACS on HEK293/hCLDN18.1 cells
T3 construct: whole, on cells; also called hCLDN18.1
T3 sequence (P56856 whole entry): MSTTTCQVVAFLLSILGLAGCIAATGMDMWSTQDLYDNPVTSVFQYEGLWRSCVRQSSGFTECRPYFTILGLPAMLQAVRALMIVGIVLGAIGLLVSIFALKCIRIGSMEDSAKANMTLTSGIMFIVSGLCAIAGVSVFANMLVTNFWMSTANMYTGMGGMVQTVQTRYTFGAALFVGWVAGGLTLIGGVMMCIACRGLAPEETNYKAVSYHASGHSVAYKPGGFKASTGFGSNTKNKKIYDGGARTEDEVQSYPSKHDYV
Procedure: as §1

[8] = target: T1, human CD3 on Jurkat cells; assay: FACS on Jurkat cells (CD3); remark: listed apart in the source
Procedure: as §1

T1 sequence (P07766 23-207): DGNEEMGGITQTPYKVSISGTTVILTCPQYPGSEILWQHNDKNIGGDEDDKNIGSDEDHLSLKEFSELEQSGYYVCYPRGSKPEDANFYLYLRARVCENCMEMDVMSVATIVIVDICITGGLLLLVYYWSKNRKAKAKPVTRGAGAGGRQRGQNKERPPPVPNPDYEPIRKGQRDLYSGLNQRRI

Binder	TDCC, Titer EC50 (pM), NUGC4_D8 [1] [pM]	binding result [2]	TDCC, Titer EC50 (pM), SNU620 [3] [pM]	EC50 [4] [nM]	EC50 [5] [nM]	binding result [6]	binding result [7]	binding result [8]
PR005076 (bispecific antibody, human IgG1, lambda, L234A L235A, structure 1; CD3 Fab from PR003886, CLDN18.2 VH from PR004536; LALA) EVQLVESGGGLVQPGGSLRLSCAASGFTFSSYWMYWVRQVPGKGLVWVSHINSDGSTTQYADSVKGRFTISRDNAKNMLYLQMNSLRAEDTAVYYCARDFPVLGGSHFDFQHWGQGTLVTVSSGGGGSGGGGSGGGGSEVQLVESGGGLVQPGGSLRLSCAASGFTFSSYWMYWVRQVPGKGLVWVSHINSDGSTTQYADSVKGRFTISRDNAKNMLYLQMNSLRAEDTAVYYCARDFPVLGGSHFDFQHWGQGTLVTVSSASEPKSSDKTHTCPPCPAPEAAGGPSVFLFPPKPKDTLMISRTPEVTCVVVDVSHEDPEVKFNWYVDGVEVHNAKTKPREEQYNSTYRVVSVLTVLHQDWLNGKEYKCKVSNKALPAPIEKTISKAKGQPREPQVCTLPPSREEMTKNQVSLSCAVKGFYPSDIAVEWESNGQPENNYKTTPPVLDSDGSFFLVSKLTVDKSRWQQGNVFSCSVMHEALHNHYTQKSLSLSPGK heavy: not shown light: QAVVTQEPSLTVSPGGTVTLTCRSSTGAVTTSNYANWVQQKPGQAPRGLIGGTNKRAPWTPARFSGSLLGDKAALTLLGAQPEDEAEYFCALWYSNLWVFGGGTKLTVLGQPKAAPSVTLFPPSSEELQANKATLVCLISDFYPGAVTVAWKADSSPVKAGVETTTPSKQSNNKYAASSYLSLTPEQWKSHRSYSCQVTHEGSTVEKTVAPTECS	102	binds	–	–	–	–	–	–
PR004603 (bispecific antibody, human IgG1, lambda, L234A L235A, structure 1 (2+1 Fab-Fc-Dual VH); CD3 Fab from PR003886, CLDN18.2 VH from PR004227; IgG1 knob/hole, LALA) EVQLVESGGGLVQPGGSLRLSCAASGFTFSSYWMHWVRQAPGKGLEWVSYINNDGSSTRYADSVKGRFTISRDNAKNTLYLQMNSLRAEDTAVYYCTEAPPYGNYERDYWGQGTLVTVSSGGGGSGGGGSGGGGSEVQLVESGGGLVQPGGSLRLSCAASGFTFSSYWMHWVRQAPGKGLEWVSYINNDGSSTRYADSVKGRFTISRDNAKNTLYLQMNSLRAEDTAVYYCTEAPPYGNYERDYWGQGTLVTVSSASEPKSSDKTHTCPPCPAPEAAGGPSVFLFPPKPKDTLMISRTPEVTCVVVDVSHEDPEVKFNWYVDGVEVHNAKTKPREEQYNSTYRVVSVLTVLHQDWLNGKEYKCKVSNKALPAPIEKTISKAKGQPREPQVCTLPPSREEMTKNQVSLSCAVKGFYPSDIAVEWESNGQPENNYKTTPPVLDSDGSFFLVSKLTVDKSRWQQGNVFSCSVMHEALHNHYTQKSLSLSPGK heavy: not shown light: QAVVTQEPSLTVSPGGTVTLTCRSSTGAVTTSNYANWVQQKPGQAPRGLIGGTNKRAPWTPARFSGSLLGDKAALTLLGAQPEDEAEYFCALWYSNLWVFGGGTKLTVLGQPKAAPSVTLFPPSSEELQANKATLVCLISDFYPGAVTVAWKADSSPVKAGVETTTPSKQSNNKYAASSYLSLTPEQWKSHRSYSCQVTHEGSTVEKTVAPTECS	251	binds	17.8	33.1	–	–	–	–
PR005072 (bispecific antibody, human IgG1, lambda, L234A L235A, structure 1; CD3 Fab from PR003886, CLDN18.2 VH from PR004533; LALA) EVQLVESGGGLVQPGGSLRLSCAASGFTFSSYWMHWVRQVPGKGLVWVSRINSDGSRTIYADSVKGRFTISRDNAKNTLYLQMNSLRAEDTAVYYCARGEDHDILTGYPIRGQGTTVTVSSGGGGSGGGGSGGGGSEVQLVESGGGLVQPGGSLRLSCAASGFTFSSYWMHWVRQVPGKGLVWVSRINSDGSRTIYADSVKGRFTISRDNAKNTLYLQMNSLRAEDTAVYYCARGEDHDILTGYPIRGQGTTVTVSSASEPKSSDKTHTCPPCPAPEAAGGPSVFLFPPKPKDTLMISRTPEVTCVVVDVSHEDPEVKFNWYVDGVEVHNAKTKPREEQYNSTYRVVSVLTVLHQDWLNGKEYKCKVSNKALPAPIEKTISKAKGQPREPQVCTLPPSREEMTKNQVSLSCAVKGFYPSDIAVEWESNGQPENNYKTTPPVLDSDGSFFLVSKLTVDKSRWQQGNVFSCSVMHEALHNHYTQKSLSLSPGK heavy: not shown light: QAVVTQEPSLTVSPGGTVTLTCRSSTGAVTTSNYANWVQQKPGQAPRGLIGGTNKRAPWTPARFSGSLLGDKAALTLLGAQPEDEAEYFCALWYSNLWVFGGGTKLTVLGQPKAAPSVTLFPPSSEELQANKATLVCLISDFYPGAVTVAWKADSSPVKAGVETTTPSKQSNNKYAASSYLSLTPEQWKSHRSYSCQVTHEGSTVEKTVAPTECS	142	binds	34.5	15.7	90.7	–	–	–

More lines, now with the values ahead:

TDCC, Titer EC50 (pM), NUGC4_D8 [1] [pM]	binding result [2]	TDCC, Titer EC50 (pM), SNU620 [3] [pM]	EC50 [4] [nM]	EC50 [5] [nM]	binding result [6]	binding result [7]	binding result [8]	Binder
21.9	–	313	–	–	binds	–	–	PR005422 (bispecific antibody, human IgG1, lambda, L234A L235A, structure 1; CD3 Fab from PR003886, CLDN18.2 VH from PR007247; LALA) EVQLVESGGGLVQPGGSLRLSCAASGFTFSSYWMYWVRQVPGKGLVWVSHINPLGSTTQYADSVKGRFTISRDNAKNMLYLQMNSLRAEDTAVYYCARDFPVLGGSHFDFQHWGQGTLVTVSSGGGGSGGGGSGGGGSEVQLVESGGGLVQPGGSLRLSCAASGFTFSSYWMYWVRQVPGKGLVWVSHINPLGSTTQYADSVKGRFTISRDNAKNMLYLQMNSLRAEDTAVYYCARDFPVLGGSHFDFQHWGQGTLVTVSSASEPKSSDKTHTCPPCPAPEAAGGPSVFLFPPKPKDTLMISRTPEVTCVVVDVSHEDPEVKFNWYVDGVEVHNAKTKPREEQYNSTYRVVSVLTVLHQDWLNGKEYKCKVSNKALPAPIEKTISKAKGQPREPQVCTLPPSREEMTKNQVSLSCAVKGFYPSDIAVEWESNGQPENNYKTTPPVLDSDGSFFLVSKLTVDKSRWQQGNVFSCSVMHEALHNHYTQKSLSLSPGK heavy: not shown light: QAVVTQEPSLTVSPGGTVTLTCRSSTGAVTTSNYANWVQQKPGQAPRGLIGGTNKRAPWTPARFSGSLLGDKAALTLLGAQPEDEAEYFCALWYSNLWVFGGGTKLTVLGQPKAAPSVTLFPPSSEELQANKATLVCLISDFYPGAVTVAWKADSSPVKAGVETTTPSKQSNNKYAASSYLSLTPEQWKSHRSYSCQVTHEGSTVEKTVAPTECS
73.9	–	41	–	13.9	–	no binding	binds	PR005521 (bispecific antibody, third chain is CD3 VH-CH1; PR001848 / PR004533; LALA) chain 1: EVQLVESGGGLVQPGGSLRLSCAASGFTFSSYWMHWVRQVPGKGLVWVSRINSDGSRTIYADSVKGRFTISRDNAKNTLYLQMNSLRAEDTAVYYCARGEDHDILTGYPIRGQGTTVTVSSGGGGSGGGGSGGGGSEVQLVESGGGLVQPGGSLRLSCAASGFTFSSYWMHWVRQVPGKGLVWVSRINSDGSRTIYADSVKGRFTISRDNAKNTLYLQMNSLRAEDTAVYYCARGEDHDILTGYPIRGQGTTVTVSSASEPKSSDKTHTCPPCPAPEAAGGPSVFLFPPKPKDTLMISRTPEVTCVVVDVSHEDPEVKFNWYVDGVEVHNAKTKPREEQYNSTYRVVSVLTVLHQDWLNGKEYKCKVSNKALPAPIEKTISKAKGQPREPQVCTLPPSREEMTKNQVSLSCAVKGFYPSDIAVEWESNGQPENNYKTTPPVLDSDGSFFLVSKLTVDKSRWQQGNVFSCSVMHEALHNHYTQKSLSLSPGK chain 2: not shown chain 3: EVQLLESGGGLVQPGGSLRLSCAASGFTFSTYAMNWVRQAPGKGLEWVSRIRSKYNNYATYYADSVKDRFTISRDDSKSTLYLQMNSLRAEDTAVYYCVRHGNFGNSYVSWFAYWGQGTLVTVSSASTKGPSVFPLAPSSKSTSGGTAALGCLVKDYFPEPVTVSWNSGALTSGVHTFPAVLQSSGLYSLSSVVTVPSSSLGTQTYICNVNHKPSNTKVDKKVEPKSC
